This is an account of results in patent US20220378956A1.

The target in assay [1] is soluble uPAR (suPAR) (UniProt Q03405). Kind of assay: SPR (Biacore 2000), antibody captured on protein A/G surface, suPAR injected, 25 C, 1:1 Langmuir fit.
Assay [2] has the same target. Kind of assay: SPR (Biacore 2000), antibody captured on rabbit anti-mouse surface, suPAR injected, 25 C, 1:1 Langmuir fit.

In the assay with soluble uPAR (suPAR) [1], “Human Engineered ATN-658 variant HE ATN-4, renamed humanized mAb MNPR-101 (antibody)” showed a Kd of 0.39 nM. In the case of mouse monoclonal antibody ATN-658, in the assay with soluble uPAR (suPAR) [2], the Kd worked out at 0.38 nM.

As a reminder, the Kd is the free concentration of one partner at which half of the binding sites on the other are occupied at equilibrium, for simple one-to-one binding. A high value points to lower affinity.
